According to the supplement of paper PMC7125110:
± gives the standard error. Fewer inactive variants are shown than the library holds.

B1: glmS ribozyme (parent)
chain: AUAAAAGCGCCAGAACUACAGAAAUGUAGUUGACGAGGAGGAGGUUUAUCGAAUUUUCGGCGGAUGCCUCCAAA

Variants of: B1
Assay: self-cleavage kobs at 2500 uM GlcN6P; higher = faster cleavage; RNA array
Conditions: with glucosamine-6-phosphate
Method in brief: (§1)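 Barcoded ribozyme variants, transcribed in situ by E. coli RNA polymerase on sequenced MiSeq chips, were followed via a hybridised Cy3 probe at 37 °C. Glucosamine-6-phosphate ranged from 40 μM to 10 mM in HEPES/KCl/Mg(OAc)2 buffer. kobs came from decay fits to per-tile medians, and kcat and KM from weighted Michaelis–Menten fits.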

Variant	self-cleavage kobs at 2500 uM GlcN6P [s⁻¹]
G7A C11A A12U G32A G60A C61G	< 1e-05
A53U U54C U55A A64G	0.00369 ± 0.00074
C16A U31C G43A U47G A53G C68U	8.35e-05 ± 2.9e-05
U31G G32A U56G	9.1e-05 ± 2.5e-05
U30A U56A G60U	< 1e-05
C16U G35U G62U G63U	< 1e-05
G7U U54C C61A	< 1e-05
C10A A42G U55G C67U	< 1e-05
G13U G40A A53G	0.000153 ± 3.6e-05
U46G U54C C58G U65A	< 1e-05
C8U G13A A15G	< 1e-05
G7U U47G A52U	< 1e-05
G26U G32A G63A C71U	< 1e-05
G29C U49G C61U	< 1e-05
C8U A42G G43U U49G	< 1e-05
U45A U55C U57C	8.32e-05 ± 1.8e-05
C10A G37A A53C	< 1e-05
U56C C67A C71G	< 1e-05
A12U A14U G29C U49A	< 1e-05
G13C A33G G35A A48G A64G	< 1e-05
A6G U30C G44U A52C G63U	< 1e-05
A6U G13A U49C	< 1e-05
G43U U47G G59C	< 1e-05
C10G A36C G60C C70U	< 1e-05
G9A A33C A39C U57A	< 1e-05
C10U A14C G32C	< 1e-05

Variant	self-cleavage kobs at 2500 uM GlcN6P [s⁻¹]
C34A G40C U46C U47A G59C	< 1e-05
C8A A53C U55C G60U C68G	< 1e-05
A6C A12U U49A A53G U54A	< 1e-05
A6U C10G A39U C71U	< 1e-05
G37U G44U G59A C70U	< 1e-05
G40C A64U C68U	< 1e-05
A6G A12C G37C U45A C70U	< 1e-05
C11A G51U U55A G62A	< 1e-05
G26U G66U	0.000774 ± 0.00023
A15U U56C C68A C71G	< 1e-05
C10G C11G A36C G38C A53C G60U	< 1e-05
G29A G43C C68G	0.00377 ± 0.0014
C11G G43U C58A	< 1e-05
A14C A36U G59U	< 1e-05
G29U U45G C71U	0.000117 ± 5e-05
U56A U57C C67A	4.71e-05 ± 2e-05
U56C A64U U65C	< 1e-05
C11U A15C G63U U65A C67A	< 1e-05
G41U C50U G51U	< 1e-05
A6U A33U C68G	< 1e-05
U30G U56G C71A	0.000262 ± 6.3e-05
A14G C16G A64G U69G	5.19e-05 ± 2.3e-05
A33G C34U U49A	< 1e-05
C10G C16U A33G G40C U47G U56G	< 1e-05
G41U U47C G51U	< 1e-05
G9U A12U C68U	< 1e-05

Variant	self-cleavage kobs at 2500 uM GlcN6P [s⁻¹]
G38A G62A G63U	< 1e-05
G7C G29U G35U	< 1e-05
G7A U30G G32A A39G	< 1e-05
C50A U65G C67A	8.64e-05 ± 2.2e-05
G32A G51U	< 1e-05
A24C G26U G40U	0.00202 ± 0.00051
A15G U55A G66C	0.000727 ± 0.00013
A15G G32C C68G	< 1e-05
A12G U56G C70G	0.000113 ± 3e-05
G32C G62C C67U	< 1e-05
G13U U45A U46A C58U	6.89e-05 ± 3.4e-05
G35C G37C U54A G66U	< 1e-05
U30C U31C A53U U55A	0.00034 ± 7.2e-05
G29U U57A	4.22e-05 ± 1.5e-05
A14C A33G G35C G38C G44A A48U C50U	< 1e-05
A42G A48U U56A	0.000146 ± 4.2e-05
A36C G41U G43U G51C C58G G60A C67A	< 1e-05
A6G A39U U49C	< 1e-05
G7C C34A U46G G63C	< 1e-05
A36G G41U G60A	< 1e-05
C8G C16G G40C	< 1e-05
U30C G37C G38C C61U	< 1e-05
A15C G43A G44U G59U	< 1e-05
C16A G59U A64U C67G	< 1e-05
A6U A12U U55A	0.000377 ± 9.2e-05
A33G A36G G38U C61U C71A	< 1e-05

Variant	self-cleavage kobs at 2500 uM GlcN6P [s⁻¹]
A6U G29U A36G G44A U55C	< 1e-05
A14U C50A C71A	4.46e-05 ± 2.1e-05
C50U C58A C70G	7.55e-05 ± 2.9e-05
A48G U49G A52U A53G	< 1e-05
C11A C16U C71U	0.000223 ± 5.3e-05
A15C G32U C34U	< 1e-05
G32C A39G A53G G62A	< 1e-05
A33C G59C A64G G66A C70A	< 1e-05
A14C C34G A39C	< 1e-05
A33C U56G	5.24e-05 ± 2.2e-05
C10G A42C U45G	< 1e-05
U31A A48G G59A	0.000108 ± 3.6e-05
C11U A48U G60U	< 1e-05
A12G U49A U65A	< 1e-05
C8G A15U U47G	< 1e-05
C50G U56G G59U	8.66e-05 ± 3.9e-05
C34A A39C G66C C71A	< 1e-05
A33G U47G G66A	< 1e-05
C8A A33C G40A U47G	< 1e-05
U30A G37A G59C	< 1e-05
G7A G32U C58U C67U	< 1e-05
C11G C61A G62C	< 1e-05
G29A G41A	6.8e-05 ± 2e-05
A12U A39U G40A	0.00415 ± 0.0015
G37U A53C	< 1e-05
A14C U45A U57A	3.29e-05 ± 1.2e-05

Variant	self-cleavage kobs at 2500 uM GlcN6P [s⁻¹]
U30G G37A A42U	6.68e-05 ± 1.2e-05
A33G U46A G59C C67G C68G	4.87e-05 ± 2.1e-05
G37A G43C C58G	< 1e-05
C16U U31C U46C C70U	0.000342 ± 0.00015
G40A U55A U56C	0.000458 ± 0.00017
G13A U65G	8.18e-05 ± 2e-05
A6C U31C G41C A42G U45G G59C G66U	< 1e-05
C34A A42C A52U C71A	< 1e-05
U47C C67G C70U	0.000129 ± 4.1e-05
A33C A53U U54G	0.000173 ± 4.3e-05
A6G G43U G44A A48U G63A	< 1e-05
C11G G37A G60U G63C U69C C70U	< 1e-05
U47A C50A G59U G66C	< 1e-05
C10U A15G U31A G32U U65G	< 1e-05
C10A A48C A64U	< 1e-05
G7C G13A A52U G66C	< 1e-05
U30A U31A G40A U57G	< 1e-05
A6G C10U U31A G60U C67U	< 1e-05
G7A U31C A39G A52U	< 1e-05
A12U A36C G59U U65A	< 1e-05
C19A U30C	7.18e-05 ± 2.3e-05
G9A G44U G60A	< 1e-05
G35A U69C	< 1e-05
A12G C68A C71A	< 1e-05
U31G G32A U46G A52U	< 1e-05
G35A C50G U54G A64C	7.23e-05 ± 2.7e-05

Variant	self-cleavage kobs at 2500 uM GlcN6P [s⁻¹]
A12U G13A G32C A36G C61U	< 1e-05
A6G A14C A53G	6.89e-05 ± 1.6e-05
C16U G51C U54C U57G	< 1e-05
A6G G41U U46G G60C	< 1e-05
G43A U54A	3.85e-05 ± 1.7e-05
G7A G38U G41U	< 1e-05
G32U G38C G40C U57C C67A	< 1e-05
U31C A36U	< 1e-05
A14G U55G C68A	0.000208 ± 5.1e-05
G51A A53C G62U	< 1e-05
G7U C11A A14C A15C A33C U46G A48G C61U C67A	< 1e-05
A33C G37A U47A	< 1e-05
C10G C11A A33C A36U A52U A53C U56A G62U	< 1e-05
G43A U46C A53G	< 1e-05
C16U U46C A53C	0.000978 ± 0.0002
G35C A53G C71U	< 1e-05
G37U G44U C70G	< 1e-05
G7C A42G G59U	< 1e-05
A12U A33C G43A C67U	< 1e-05
G32C G35U G41C C58A A64G	< 1e-05
A36U U55C C58G	< 1e-05
A15U U56C U57G G63A C70G	0.000104 ± 4.9e-05
A36U U69G C71A	0.000556 ± 0.00021
A15G U30A G44U U45A	0.000178 ± 5.5e-05
C16G A48C G60U A64U	< 1e-05

Variants of: B1
Assay: self-cleavage kobs at 10000 uM GlcN6P; higher = faster cleavage; RNA array
Conditions: with glucosamine-6-phosphate
Method in brief: as §1

Variant	self-cleavage kobs at 10000 uM GlcN6P [s⁻¹]
U31G G32A U56G	0.000522 ± 9.3e-05
C10A A42G U55G C67U	< 1e-05
U45A U55C U57C	0.00033 ± 7.3e-05
G40C A64U C68U	< 1e-05
A24C G26U G40U	0.00158 ± 0.00035
A12G U56G C70G	7.52e-05 ± 2e-05
G32C G62C C67U	< 1e-05
A33C G59C A64G G66A C70A	< 1e-05
A33C U56G	5.35e-05 ± 1e-05
G29A G41A	5.78e-05 ± 1.5e-05
G37U A53C	< 1e-05
U30G G37A A42U	9.36e-05 ± 2.3e-05
A6C U31C G41C A42G U45G G59C G66U	< 1e-05
U47C C67G C70U	8.24e-05 ± 1.8e-05
C19A U30C	6.71e-05 ± 2.2e-05
G35A U69C	< 1e-05
U31C A36U	< 1e-05
G35C A53G C71U	< 1e-05
A36U U69G C71A	5.84e-05 ± 1.8e-05
